We go through 75 variants from PMC12102759 (2025).

B1: PIP5K1C peptide 642-657 (Phosphatidylinositol 4-phosphate 5-kinase type-1 gamma), 16-mer library wild type / TLN1 PTB (TLN1 Phosphotyrosine-binding (PTB) domain, residues 309-401) (parent complex)
chain 1: TDERSWVYSPLHYSAQ
chain 2: GVSFFLVKEKMKGKNKLVPRLLGITKECVMRVDEKTKEVIQEWNLTNIKRWAASPKSFTLDFGDYQDGYYSVQTTEGEQIAQLIAGYIDIILK
B2: CBL peptide 540-555 (E3 ubiquitin-protein ligase CBL), 16-mer library wild type / YES SH3 (YES1 SH3 domain, residues 90-152) (parent complex)
chain 1: RDLPPPPPPDRPYSVG
chain 2: not shown

The first assay covers variants of B1. Briefly: proteomic peptide phage display deep mutational scan (ProP-PD DMS): M13 P8 16-mer library selected against immobilised GST-tagged bait for four days (rounds), NGS of the eluted pools per day and pseudo-replica; bait immobilised on MaxiSorp plates (10 µg), library pre-cleared on GST, 2 h binding at 4 °C, five washes; one round per day, days 1-4; value from days 2 and 3.
On to chain 1 V7A, for which the screen value was 0.0345 average fractional NGS count over selection days 2 and 3 (reads of this peptide / all reads for the bait, averaged over …. As for chain 1 V7F, the screen value is 0.00058 average fractional NGS count over selection days 2 and 3 (reads of this peptide / all reads for the bait, averaged over …. Same read-out and setting: the value for chain 1 E3W was 0.0075 average fractional NGS count over selection days 2 and 3 (reads of this peptide / all reads for the bait, averaged over …; that for chain 1 E3V was 0.000642 average fractional NGS count over selection days 2 and 3 (reads of this peptide / all reads for the bait, averaged over …. On to chain 1 W6F, for which the screen value is 0.000288 average fractional NGS count over selection days 2 and 3 (reads of this peptide / all reads for the bait, averaged over …. For the variant chain 1 W6N, the screen value was 0.00011 average fractional NGS count over selection days 2 and 3 (reads of this peptide / all reads for the bait, averaged over ….

As for chain 1 S5L, the screen value is 0.00637 average fractional NGS count over selection days 2 and 3 (reads of this peptide / all reads for the bait, averaged over ….

Regarding chain 1 S5Q, the screen value is 0.000811 average fractional NGS count over selection days 2 and 3 (reads of this peptide / all reads for the bait, averaged over …. Still for that read-out and setting: the same measure for chain 1 S5D: 0.00879 average fractional NGS count over selection days 2 and 3 (reads of this peptide / all reads for the bait, averaged over …. Take chain 1 S5K: the screen value is 0.00079 average fractional NGS count over selection days 2 and 3 (reads of this peptide / all reads for the bait, averaged over …. chain 1 S5G: the screen value was 0.000211 average fractional NGS count over selection days 2 and 3 (reads of this peptide / all reads for the bait, averaged over …. Consider chain 1 S5H, for which the screen value is 0.00161 average fractional NGS count over selection days 2 and 3 (reads of this peptide / all reads for the bait, averaged over …. For the variant chain 1 R4D, the screen value was 0.0132 average fractional NGS count over selection days 2 and 3 (reads of this peptide / all reads for the bait, averaged over …. Consider chain 1 Y13E, for which the screen value is 0.000568 average fractional NGS count over selection days 2 and 3 (reads of this peptide / all reads for the bait, averaged over …. On to chain 1 A15S, for which the screen value is 0.001 average fractional NGS count over selection days 2 and 3 (reads of this peptide / all reads for the bait, averaged over …. Same read-out and setting: the value for chain 1 T1D was 0.00201 average fractional NGS count over selection days 2 and 3 (reads of this peptide / all reads for the bait, averaged over …; that for chain 1 T1I was 0.000851 average fractional NGS count over selection days 2 and 3 (reads of this peptide / all reads for the bait, averaged over ….

chain 1 L11R: the screen value was 0.00065 average fractional NGS count over selection days 2 and 3 (reads of this peptide / all reads for the bait, averaged over …. For chain 1 L11I, the screen value is 0.00188 average fractional NGS count over selection days 2 and 3 (reads of this peptide / all reads for the bait, averaged over ….

In the case of chain 1 S9P, the screen value is 0.000206 average fractional NGS count over selection days 2 and 3 (reads of this peptide / all reads for the bait, averaged over …. As for chain 1 D2R, the screen value was 0.00137 average fractional NGS count over selection days 2 and 3 (reads of this peptide / all reads for the bait, averaged over ….

As to chain 1 D2A, the screen value is 0.0142 average fractional NGS count over selection days 2 and 3 (reads of this peptide / all reads for the bait, averaged over …. For chain 1 D2G, the screen value was 0.00241 average fractional NGS count over selection days 2 and 3 (reads of this peptide / all reads for the bait, averaged over …. Take chain 1 S14E: the screen value was 0.00034 average fractional NGS count over selection days 2 and 3 (reads of this peptide / all reads for the bait, averaged over ….

As for chain 1 S14M, the screen value was 0.00342 average fractional NGS count over selection days 2 and 3 (reads of this peptide / all reads for the bait, averaged over …. As to chain 1 P10M, the screen value is 0.00123 average fractional NGS count over selection days 2 and 3 (reads of this peptide / all reads for the bait, averaged over ….

In another assay the parent is B2. The description is as above.
With chain 1 P9S, the screen value is 0.000868 average fractional NGS count over selection days 2 and 3 (reads of this peptide / all reads for the bait, averaged over …. In the case of chain 1 P9Q, the screen value is 0.00144 average fractional NGS count over selection days 2 and 3 (reads of this peptide / all reads for the bait, averaged over ….

With chain 1 P9W, the screen value is 0.00602 average fractional NGS count over selection days 2 and 3 (reads of this peptide / all reads for the bait, averaged over …. The same measure, in the same setting: the value for chain 1 P9R was 0.000295 average fractional NGS count over selection days 2 and 3 (reads of this peptide / all reads for the bait, averaged over …; that for chain 1 P9A was 0.00224 average fractional NGS count over selection days 2 and 3 (reads of this peptide / all reads for the bait, averaged over …; that for chain 1 P9L was 0.00194 average fractional NGS count over selection days 2 and 3 (reads of this peptide / all reads for the bait, averaged over …. Regarding chain 1 P9D, the screen value was 0.00109 average fractional NGS count over selection days 2 and 3 (reads of this peptide / all reads for the bait, averaged over …. For the variant chain 1 S14Y, the screen value is 0.00258 average fractional NGS count over selection days 2 and 3 (reads of this peptide / all reads for the bait, averaged over …. chain 1 S14R: the screen value is 6.61e-05 average fractional NGS count over selection days 2 and 3 (reads of this peptide / all reads for the bait, averaged over …. As to chain 1 S14I, the screen value was 0.00339 average fractional NGS count over selection days 2 and 3 (reads of this peptide / all reads for the bait, averaged over …. As for chain 1 S14T, the screen value was 0.0152 average fractional NGS count over selection days 2 and 3 (reads of this peptide / all reads for the bait, averaged over …. Regarding chain 1 S14H, the screen value is 0.000385 average fractional NGS count over selection days 2 and 3 (reads of this peptide / all reads for the bait, averaged over …. Take chain 1 S14A: the screen value is 0.00883 average fractional NGS count over selection days 2 and 3 (reads of this peptide / all reads for the bait, averaged over …. With chain 1 S14D, the screen value was 0.000862 average fractional NGS count over selection days 2 and 3 (reads of this peptide / all reads for the bait, averaged over …. chain 1 S14M: the screen value was 0.00137 average fractional NGS count over selection days 2 and 3 (reads of this peptide / all reads for the bait, averaged over …. For chain 1 S14F, the screen value was 0.0172 average fractional NGS count over selection days 2 and 3 (reads of this peptide / all reads for the bait, averaged over …. On to chain 1 P6M, for which the screen value was 0.0066 average fractional NGS count over selection days 2 and 3 (reads of this peptide / all reads for the bait, averaged over …. The same measure, in the same setting: the value for chain 1 P6F was 0.00211 average fractional NGS count over selection days 2 and 3 (reads of this peptide / all reads for the bait, averaged over …; that for chain 1 P6N was 0.000163 average fractional NGS count over selection days 2 and 3 (reads of this peptide / all reads for the bait, averaged over …; that for chain 1 P6Q was 0.000768 average fractional NGS count over selection days 2 and 3 (reads of this peptide / all reads for the bait, averaged over …. chain 1 P6E: the screen value was 0.000208 average fractional NGS count over selection days 2 and 3 (reads of this peptide / all reads for the bait, averaged over ….

Take chain 1 P6Y: the screen value was 0.000164 average fractional NGS count over selection days 2 and 3 (reads of this peptide / all reads for the bait, averaged over …. Turning to chain 1 P6A, the screen value was 0.0119 average fractional NGS count over selection days 2 and 3 (reads of this peptide / all reads for the bait, averaged over ….

Consider chain 1 P6V, for which the screen value was 0.0162 average fractional NGS count over selection days 2 and 3 (reads of this peptide / all reads for the bait, averaged over ….

As to chain 1 P7Y, the screen value was 0.000167 average fractional NGS count over selection days 2 and 3 (reads of this peptide / all reads for the bait, averaged over …. For the variant chain 1 P7G, the screen value was 9.71e-05 average fractional NGS count over selection days 2 and 3 (reads of this peptide / all reads for the bait, averaged over …. For chain 1 P7M, the screen value is 0.00246 average fractional NGS count over selection days 2 and 3 (reads of this peptide / all reads for the bait, averaged over ….

Consider chain 1 P7N, for which the screen value is 0.000153 average fractional NGS count over selection days 2 and 3 (reads of this peptide / all reads for the bait, averaged over …. On to chain 1 P7H, for which the screen value was 0.00103 average fractional NGS count over selection days 2 and 3 (reads of this peptide / all reads for the bait, averaged over ….

As to chain 1 P7I, the screen value was 0.000596 average fractional NGS count over selection days 2 and 3 (reads of this peptide / all reads for the bait, averaged over ….

In the case of chain 1 P7R, the screen value is 0.000229 average fractional NGS count over selection days 2 and 3 (reads of this peptide / all reads for the bait, averaged over …. For chain 1 P7T, the screen value is 0.00618 average fractional NGS count over selection days 2 and 3 (reads of this peptide / all reads for the bait, averaged over …. As for chain 1 P7Q, the screen value was 0.000262 average fractional NGS count over selection days 2 and 3 (reads of this peptide / all reads for the bait, averaged over …. On the same count and under the same terms, the same measure for chain 1 P7F: 0.00308 average fractional NGS count over selection days 2 and 3 (reads of this peptide / all reads for the bait, averaged over …; for chain 1 P7A: 0.000371 average fractional NGS count over selection days 2 and 3 (reads of this peptide / all reads for the bait, averaged over …; for chain 1 P7W: 0.000156 average fractional NGS count over selection days 2 and 3 (reads of this peptide / all reads for the bait, averaged over …. As for chain 1 P7E, the screen value was 0.000775 average fractional NGS count over selection days 2 and 3 (reads of this peptide / all reads for the bait, averaged over …. On to chain 1 Y13G, for which the screen value was 8.54e-05 average fractional NGS count over selection days 2 and 3 (reads of this peptide / all reads for the bait, averaged over …. For the variant chain 1 Y13L, the screen value is 0.00594 average fractional NGS count over selection days 2 and 3 (reads of this peptide / all reads for the bait, averaged over …. With chain 1 Y13A, the screen value was 0.00126 average fractional NGS count over selection days 2 and 3 (reads of this peptide / all reads for the bait, averaged over …. For chain 1 Y13R, the screen value is 0.000326 average fractional NGS count over selection days 2 and 3 (reads of this peptide / all reads for the bait, averaged over …. In the case of chain 1 Y13E, the screen value is 0.000222 average fractional NGS count over selection days 2 and 3 (reads of this peptide / all reads for the bait, averaged over ….

For chain 1 D10A, the screen value is 0.00828 average fractional NGS count over selection days 2 and 3 (reads of this peptide / all reads for the bait, averaged over …. As for chain 1 D10K, the screen value was 0.00142 average fractional NGS count over selection days 2 and 3 (reads of this peptide / all reads for the bait, averaged over …. As for chain 1 D10I, the screen value was 0.000128 average fractional NGS count over selection days 2 and 3 (reads of this peptide / all reads for the bait, averaged over …. Consider chain 1 D10F, for which the screen value is 0.000931 average fractional NGS count over selection days 2 and 3 (reads of this peptide / all reads for the bait, averaged over …. With chain 1 D10E, the screen value was 0.0012 average fractional NGS count over selection days 2 and 3 (reads of this peptide / all reads for the bait, averaged over …. As to chain 1 D10N, the screen value was 0.000163 average fractional NGS count over selection days 2 and 3 (reads of this peptide / all reads for the bait, averaged over …. On to chain 1 D10V, for which the screen value was 0.000894 average fractional NGS count over selection days 2 and 3 (reads of this peptide / all reads for the bait, averaged over ….
